Molecular target: T1, His-KDM4A_(1–359)-Bio (human, UniProt O75164 1-359, biotin on the AviTag (>95% biotinylation))
T1 chain: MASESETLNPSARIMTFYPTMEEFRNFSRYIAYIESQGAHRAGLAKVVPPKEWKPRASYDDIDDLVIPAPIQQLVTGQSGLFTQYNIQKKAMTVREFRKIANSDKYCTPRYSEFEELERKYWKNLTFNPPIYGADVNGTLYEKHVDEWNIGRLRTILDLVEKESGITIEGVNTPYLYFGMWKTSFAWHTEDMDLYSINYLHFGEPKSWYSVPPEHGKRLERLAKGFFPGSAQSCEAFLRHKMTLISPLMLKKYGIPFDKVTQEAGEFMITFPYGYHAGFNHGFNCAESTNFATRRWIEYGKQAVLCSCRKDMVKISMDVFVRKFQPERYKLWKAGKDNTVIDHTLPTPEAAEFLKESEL
Assay: BLI

B1: H3(1–15)K9me3 (peptide)
peptide: ARTKQTARKSTGGKA
modifications: trimethyl-lysine at 9
  Kd: 110 µM

— publication PMC5384220 (2017)
